How the values were obtained:
[1] = target: T1, full length human Shh expressed on the cell surface (human, UniProt Q15465 24-462); experiment: cell-based or functional assay
[2] = target: T2, Shh-N in conditioned medium (human, UniProt Q15465 24-197, N-terminal palmitoyl modification; lacks the C-terminal cholesterol moiety); experiment: cell-based or functional assay
[3] = target: T1, full length human Shh expressed on the …; experiment: cell-based or functional assay; remark: listed apart in the source
[4] = target: T2, Shh-N in conditioned medium; experiment: cell-based or functional assay; remark: listed apart in the source
[5] = target: T2, Shh-N in conditioned medium; experiment: cell-based or functional assay; remark: listed apart in the source
[6] = target: T2, Shh-N in conditioned medium; experiment: cell-based or functional assay; remark: listed apart in the source
[7] = target: T3, Recombinant Human Desert Hedgehog C23II, amino terminal peptide (R&D Systems cat#4777-HH) (human, UniProt O43323 23-198); experiment: ELISA, immobilized human Dhh, antibody 30 µg/ml to 1 pg/ml
T3 construct: domain: amino terminal peptide; bought; also called Human Dhh
Description: The plates were washed four times with PBS-T. Titrations of purified antibody (half log serial dilutions over at least six logs with a starting concentration of 30 μg/mL) were made in 100 μl PBS-T and added into wells and incubated with shaking overnight at 4° C. Antibody controls included human IgG2 and IgG4 (Sigma-Aldrich, Cat, #I5404 and #I4639, respectively). […] Following washing with PBS-T, the chemiluminescent Peroxidase substrate (Sigma cat# CPS-2-60) was added at room temperature and incubated for ten minutes with the plate covered by foil. Each well was read for 100 msec in the Spectromax 5e to determine RLU.
After washing with PBS-T and blocking with 1% BSA, antibody titrations spanning concentrations of 30 μg/ml to 1 pg/ml prepared by half log serial dilution in PBS-T were added to wells and incubated with shaking overnight at 4° C.

[8] = target: T2, Shh-N in conditioned medium; experiment: ELISA, apparent KD, purified antibody on immobilized Shh-CM
Description: (§1) The binding of purified antibodies to recombinant human Shh was determined using an ELISA-based method. The N-terminal signaling domain of Shh, Shh-N, was presented in two forms: as a purified protein isolated from bacteria lacking lipid modifications and as a constituent of conditioned medium in a form that contains the N-terminal palmitoyl modification but lacks the C-terminal cholesterol moiety.
(§2) The plates were sealed and placed on a shaker overnight at 5° C. The next day, the plates were washed 4 times with PBS with 0.05% Tween 20 (PBS-T). […] The plates were washed four times with PBS-T. Titrations of purified antibody (half log serial dilutions over at least six logs with a starting concentration of 30 μg/mL) were made in 100 μl PBS-T and added into wells and incubated with shaking overnight at 4° C. Antibody controls included human IgG2 and IgG4 (Sigma-Aldrich, Cat, #I5404 and #I4639, respectively). […] Following washing with PBS-T, the chemiluminescent Peroxidase substrate (Sigma cat# CPS-2-60) was added at room temperature and incubated for ten minutes with the plate covered by foil. Each well was read for 100 msec in the Spectromax 5e to determine RLU.

[9] = target: T4, Recombinant Human Sonic Hedgehog C24II amino terminal peptide (R&D Systems cat#1845-SH) (human, UniProt Q15465 24-197); experiment: ELISA, apparent KD, purified antibody on immobilized Shh C24II
T4 construct: domain: amino terminal peptide; bought; also called Shh-C24II; C24II peptide
Description: as §1, §2

[10] = target: T5, Recombinant Human/Mouse Indian Hedgehog C28II, amino terminal peptide (R&D Systems cat#1705-HH/CF) (human/mouse (100% sequence identity in …, UniProt Q14623 28-202)); experiment: ELISA, apparent KD, purified antibody on immobilized human/mouse Ihh
T5 construct: domain: amino terminal peptide; bought; also called Human/mouse Ihh; Ihh-N C28II
Description: as §2

[11] = target: T1, full length human Shh expressed on the …; experiment: FMAT, hybridoma supernatant on 293T cells transiently expressing human Shh
Description: Cells were maintained at 1×10⁶ cells/ml overnight at 37° C., 5% CO₂. […] Supernatants were added to each well (10 μl/well) and incubated 1.5 hrs at RT. […] Plates were read on the FMAT 8100 HTS system from Applied Biosystems. Total signal (FL1×count) is defined as the number of positive cells in a well (count) multiplied by the average fluorescence intensity of the positive cells (FL1).

[12] = target: T1, full length human Shh expressed on the …; experiment: flow cytometry, exhaust hybridoma supernatant 1:10, 293T cells transiently expressing human Shh
Description: Finally, binding of antibody in exhaust hybridoma supernatants to native Shh was assessed using flow cytometry. […] Transfected or parental cells were seeded into the plates with V-bottom wells (50,000 cells/well). Exhaust supernatants (50 μl of a 1:10 dilution) were added to each well and incubated at 4° C. for 1 hr. […] It was added to a concentration of 2 μg/ml in a volume of 50 μl. Cells were washed and 50 μl of a 2 μg/ml solution of secondary antibody (Cy5-labeled goat-anti-human IgG or Cy5-labeled goat-anti-rabbit IgG) were added to each well. 7AAD was added to a concentration of 5 μg/ml and the mixture was incubated for 30 min at RT. The mean fluorescence for each sample was then determined using flow cytometry.

[13] = target: T1, full length human Shh expressed on the …; experiment: flow cytometry, hybridoma-derived hIgG4 on HEK 293 cells stably expressing full length Shh; 95% CI ±40 pM
Description: The binding affinity of the purified antibodies for full length Shh ectopically expressed on the surface of a pool of stable HEK 293 cells was determined using flow cytometry. […] Antibody was mixed with cells at approximately 74,000 cells/well in a final volume of 300 μl in a polypropylene microtiter plate. The plate was incubated with shaking for 5 hours at 4° C. […] The plates were shaken for 20 minutes at 4° C. The mean fluorescence of 10,000 events was recorded for each sample using FACS Canto II HTS flow cytometry instrumentation. A plot of the mean fluorescence as a function of antibody concentration was fit nonlinearly with Scientist 3.0 software to estimate KD.

[14] = target: T5, Recombinant Human/Mouse Indian Hedgehog …; experiment: cell-based or functional assay
[15] = target: T4, Recombinant Human Sonic Hedgehog C24II …; experiment: SPR (Biacore), IgG1 captured on protein G', human Shh as analyte, 1:1 Langmuir
Excerpt: (§3) Protein G was coupled to the CM5 chip surface using standard amine linkage chemistry. Protein G′ was cleared of Tris using a Dulbecco's PBS equilibrated PD-10 column. […] Approximately 500 RUs of protein G were covalently bound to the surface of flow chamber 2 (Fc2). […] Immobilization levels were reproducible between cycles.

[16] = target: T5, Recombinant Human/Mouse Indian Hedgehog …; experiment: SPR (Biacore), IgG1 captured on protein G', human/mouse Ihh as analyte, 1:1 Langmuir
Excerpt: as §3

[17] = target: T5, Recombinant Human/Mouse Indian Hedgehog …; experiment: SPR (Biacore), IgG1 captured on protein G', Ihh as analyte
Excerpt: as §3

B1: 6D7 (antibody, V domains shown)
VH: QVQLQESGPGLVKPSQTLSLTCTVSGGSINSGGFYWSWIRQHPGKNLEWIGSIYYSGNTYYNPSLKSRVTISVDTSKNQFSLKLTSVTAADTAVYYCARGNDSGDYDWYFDLWGRGTLVTVSS
VL: SYELTQPPSVSVSPGQTASITCSGEKLGYKYVCWYQQKPGQSPVLVIFHDNKRPSGIPERFSGSNSGNTATLTISGAQAMDEADYYCQAGDSSAVFGGGTKLTVL
notes: fully human XenoMouse hybridoma antibody; also called MAb 6D7
% Inh of Gli1 reporter, Co-Culture N = 1 [1]: 46% | % Inh of Gli1 reporter, Co-Culture N = 2 [1]: 22% | % Inh of Gli1 reporter, CM N = 1 [2]: -8% | % Inh of Gli1 reporter, CM N = 3 [2]: -1% | % Inhibition of Gli1 reporter, Co-Culture N = 1, 20 µg/ml [3]: 80% | % Inhibition of Gli1 reporter, Co-Culture N = 2, 20 µg/ml [3]: 68% | % Inhibition of Gli1 reporter, Conditioned Media N = 1, 20 µg/ml [4]: 89% | % Inhibition of Gli1 reporter, Conditioned Media N = 2, 20 µg/ml [4]: 111% | IC50, inhibition of osteoblast differentiation (alkaline phosphatase) of C3H10T1/2 cells [5]: 5.3 nM | IC50, inhibition of endogenous mouse Gli1 mRNA (qRT-PCR) in C3H10T1/2 cells [6]: 11.7 nM | IC50, inhibition of endogenous mouse Ptc1 mRNA (qRT-PCR) in C3H10T1/2 cells [6]: 8.2 nM | binding result [7]: no binding | Kd [8]: 0.06 nM | Kd [9]: 0.047 nM | Kd [10]: 0.052 nM | FL1 X COUNT [11]: 661000 | X Geo Mean (Transients) [12]: 313 | Kd [13]: 0.107 nM

B2: 6D7OP (antibody, IgG1, V domains shown)
VH: QVQLQESGPGLVKPSQTLSLTCTVSGGSINSGGFYWSWIRQHPGKGLEWIGSIYYSGNTYYNPSLKSRVTISVDTSKNQFSLKLSSVTAADTAVYYCARGQDSGDYDWYFDLWGRGTLVTVSS
VL: SYELTQPPSVSVSPGQTASITCSGEKLGYKYVSWYQQKPGQSPVLVIYHDNKRPSGIPERFSGSNSGNTATLTISGTQAMDEADYYCQAGDSSAVFGGGTKLTVL
IC50, inhibition of osteoblast differentiation of C3H10T1/2 cells induced by Ihh-N C28II (2 µg/ml) [14]: 16.3 nM | Kd [15]: 0.003 nM | Kd [16]: 0.0342 nM

B3: 3H8OP (antibody, V domains shown)
VH: QVQLVESGGGVVQPGRSLRLSCAASGFTFSTYGMHWVRQAPGKGLEWVAVIWYDGSNKYYADSVKGRFTISRDNSKNTLYLQMNSLRAEDTAVYYCARDLYYYGSGSPFDYWGQGTLVTVSS
VL: EIVMTQSPATLSVSPGERATLSCRASQSVSSNLAWYQQKPGQAPRLLIYGVSIRATGIPARFSGSGSGTEFTLTISSLQSEDFAVYYCQQYNNWPRPGFGGGTKVEIK
IC50, inhibition of osteoblast differentiation (alkaline phosphatase) of C3H10T1/2 cells [5]: 5.6 nM | binding result [17]: no binding | Kd [8]: 0.685 nM | Kd [9]: 0.082 nM | Kd [15]: 0.0261 nM

— US20120328625A1 (AstraZeneca / MedImmune, published 2012)
